Key:
TH+ neurons in SNpc = experiment: MPTP mouse model of PD, TH immunohistochemistry in SNpc; conditions: lentivirus injected into SNpc of mouse brain, then MPTP
Experimental: (B) Role of mitochondrial MEF2D-ND6 pathway in maintaining TH+ neurons in SNpc in a MPTP mouse model of PD. For each group, three mice received stereotactical injection of control vector (GFP) or Mt2Ddn lentivirus in SN. Two weeks later, mice were exposed to MPTP. After treatment for seven days, the survival of lentivirus-transduced TH+ neurons in SN was determined by immunohistochemistry (left panel). Quantitative analysis of nine mice from three independent experiments was shown at the bottom panel (scale bar, 30 μm; **P<0.01).

nuclear MEF2 = experiment: MEF2 luciferase reporter assay; assay type: cell-based; conditions: co-transfected with MEF2 luciferase reporter
Excerpt: Control indicates the group co-tranfected with control vector.
MEF2 luciferase reporter assay was done as described Wang et al., J Biol Chem, 2005, 280:16705-16713. Briefly, cells were transiently transfected with various constructs with MEF2 luciferase reporter plasmid (WT, reporter with wild type MEF2 DNA binding sites; mt, reporter with the MEF2 DNA binding sites mutated) using Lipofectimane 2000 (Invitrogen) following procedures provided by the manufacturer. A β-galactosidase expression plasmid was used to determine the efficiency in each transfection. The total amount of DNA for each transfection was kept constant by using control vectors. Cell lysates were analyzed for luciferase and β-galactosidase activity according to the manufacturer's instructions (Roche, cat. no. 11669893001).

SN4741 cells [1] = experiment: PI (propidium iodide) staining of cell death; assay type: cell-based, mouse; conditions: SN4741 cells infected with lentivirus 24 hours, then MPP+ 5 μM for 24 hours
Experimental: (A) SN4741 cells were infected with lentiviruses for 24 hours and followed by exposure to MPP+ (5 μM) for 24 hours. Cell death was analyzed by PI (propidium iodide) staining (n=4; scale bar, 30 μm). The control indicated the control vector. (B) Quantification of the number of PI positive cells in (A) (n=50 cells, **P<0.01). Experiments were repeated four times. Control indicates the group transfected with the control vector.

SN4741 cells [2] = experiment: WST-1 cell viability assay; assay type: cell-based, mouse
Experimental: (A) Reduced binding of MEF2D to ND6 after neurotoxin treatment. SN4741 cells were treated with MPP+ (25 μM) or rotenone (Rot, 100 nM) for 12 hours. […] Control indicates untreated. […] Control indicates untreated. (C) Immunocytochemical analysis of mitochondrial MEF2D after MPP+ and rotenone treatment. SN4741 cells treated as described in (A) were stained (scale bar, 10 μm). […] Experiments were repeated four times. Control indicates untreated. […] SN4741 cells were treated with MPP+ after infection with the control, Mt2Ddn or Mt2DVP16 or MtND6 lentiviruses for 24 hours (upper graph: different doses of MPP+ for 24 hours; lower graph: 5 μM of MPP+ for different times). Cell viability was measured by WST-1 assay (n=4; *p<0.05; **P<0.01). Control indicates the control vector group.
WST-1 assay was done using a kit (cat. no. 11644807001) from Roche and following procedures provided by the manufacturer. WST-1 (4-[3-(4-Iodophenyl)-2-(4-nitrophenyl)-2H-5-tetrazolio]-1,3-benzene disulfonate) is a water-soluble tetrazolium salt whose cleavage by cellular enzymes correlates with cell viability. Cells were seeded in 96-well plates and treated as indicated. Than 10 μl/well of premixed WST-1 Cell Proliferation Reagent was added, and the cells were incubated for an additional 4 hr under the same conditions. Absorbance at 450 nm was measured on a multi-well plate reader (Bio-Tek).

SN4741 cells [3] = experiment: Mitochondrial functional assays (ATP, H2O2, membrane potential); assay type: cell-based, mouse; conditions: over-expression in SN4741 cells
Excerpt: (A) Requirement of mitochondrial MEF2D for complex I activity. […] Control indicates the control vector group. (B) Over-expression of ND6 rescued complex I activity reduced by Mt2Ddn. Control indicates the control vector group. (C) Measurement of various complex activities. […] Control indicates the control vector group. (D) Effects of over-expression of Mt2D or Mt2Ddn on mitochondrial function. Mt2Ddn reduced cellular ATP level and elevated H2O2 production in SN4741 cells (n=4; *p<0.05; **P<0.01). Control indicates the control vector group.
Mitochondrial complex I activity was evaluated initially by blue native-polyacrylamide gel electrophoresis (BN-PAGE) and in-gel activity staining. This assay measures total complex I activity. Rotenone sensitive complex I activity and activities of other mitochondrial complexes were further measured by methods described by Antoni et al., J Biol Chem, 1998, 273:14210-14217. Briefly, parallel assays were performed to measure complex I activity at 340 nm using 2,3-dimethoxy-5-methyl-6-n-decyl-1,4-benzoquinone (DB) (50 μM) as acceptor and NADH (0.8 mM) as donor, in 50 mM Tris (pH 8.0) buffer supplemented with 5 mg/ml BSA either without or with the addition of 4 μM rotenone, which gave total and rotenone insensitive complex I activities, respectively. The difference in value between the two provided a quantified measure of the rotenone-sensitive activity. Mitochondrial membrane potential was detected using a kit (cat. no. 280002) from Stratagene following the procedures provided by the manufacturer. The fluorescent dye JC-1 (5,5′,6,6′-tetrachloro-1,1′,3,3′-tetraethylbenzimidazolyl carbocyanine iodide) stains mitochondria red in a membrane potential dependent manner. Briefly, cells were seeded in 96-well plates at 4×10^4 cells/well with 100 μl culture medium and incubated at 33° C. with 5% CO2. After treatment, 10 μl/well of premixed JC-1 staining solution was added, and the cells were incubated for an additional 30 min under the same conditions. After thorough washes, 100 μl assay buffer was added to each well. Fluorescence signal was detected with excitation and emission at 520 nm and 590 nm, respectively, on a multi-well plate reader (Bio-Tek). Cellular ATP and H202 were measured by Bioluminescent Somatic Cell ATP Assay Kit (Sigma) and Hydrogen Peroxide Assay Kit (Cayman), respectively.

ND6 mRNA = experiment: Real-time PCR of mitochondria-encoded mRNA levels in SN4741 cells; assay type: cell-based, mouse; conditions: construct over-expressed in SN4741 cells
Excerpt: (A) Mitochondria-targeting MEF2D (Mt2D) and mitochondria-targeting dominant-negative MEF2D (Mt2Ddn), which lacks the transactivation domain (TAD). […] Control indicates the control vector group. (C) Effects of Mt2D or Mt2Ddn on ND6 expression in SN4741 cells. Over-expression of Mt2Ddn in SN4741 cells reduced ND6 but not PPAR-γ coactivator 1 (PGC1) expression by western blotting (n=4, **p<0.01). Control indicates the control vector group. (D) Effects of over-expression of Mt2D or Mt2Ddn on mRNA levels of mitochondria encoded genes. […] Control indicates the control vector group. (E) Effects of Mt2D or Mt2Ddn on mtDNA L-strand transcription initiation in vitro (n=3; **P<0.01). A human mtDNA fragment containing mitochondrial L-strand promoter (LSP) and ND6 gene was used in the in vitro transcription assay. […] (F) Effects of Mt2D or Mt2Ddn on mtDNA de novo transcription in vivo (n=3; **P<0.01). Control (−) is without primers. Control (+) indicates the control vector group.

nuclear MEF2 activity (MEF2 reporter) (nuclear MEF2): did not affect
B1: Mt2Ddn: Mitochondria-targeting dominant-negative MEF2D: mouse MEF2D 1-131aa with mitochondria-targeting signal, lacks the transactivation domain (protein, UniProt Q63943 1-131, looked up, fragment)
chain: MGRKKIQIQRITDERNRQVTFTKRKFGLMKKAYELSVLCDCEIALIIFNHSNKLFQYASTDMDKVLLKYTEYNEPHESRTNADIIETLRKKGFNGCDSPEPDGEDSLEQSPLLEDKYRRASEELDGLFRRY
modifications: mitochondria-targeting signal added
loss of TH signal in DA neurons in vivo (TH+ neurons in SNpc): significantly accelerates | number of propidium iodide (PI) positive cells (SN4741 cells [1]): increases | sensitivity of cells to low dose MPP+ toxicity (SN4741 cells [2]; SN4741 cells infected with lentivirus 24 hours, then different doses of MPP+ for 24 hours): clearly sensitized | cellular viability over time (SN4741 cells [2]; SN4741 cells infected with lentivirus, 5 μM MPP+ for different times): impaired | cellular ATP level (SN4741 cells [3]): clear reduction | hydrogen peroxide production by mitochondria (SN4741 cells [3]): significantly increased | mitochondrial membrane potential (SN4741 cells [3]; JC-1): did not significantly alter | ND6 mRNA level (ND6 mRNA): clearly reduced | mRNA levels of other mitochondria-encoded proteins (ND6 mRNA): little effect

Source: patent US20120149645A1, “COMPOSITIONS AND MODULATION OF MYOCYTE ENHANCER FACTOR 2 (MEF2)” (EMORY UNIVERSITY, priority 2010, published 2012)
